This note sets out measurements from paper PMC7588053, “Cholesterol oxidase from Rhodococcus erythropolis with high specificity toward β-cholestanol and pytosterols” (PLoS ONE, 2020).

Substrate in this data set: CC(C)CCC[C@@H](C)[C@H]1CC[C@H]2[C@@H]3CC=C4C[C@@H](O)CC[C@]4(C)[C@H]3CC[C@]12C
The experiment in a line: purified protein. It is filed as biochemical, Rhodococcus erythropolis. The note with it: O2 as co-substrate, 0-1 mM cholesterol, 50 mM sodium phosphate pH 7.0, 64 mM sodium cholate, 0.34% Triton X-100, 30°C.

B1: ChoRII (Rhodococcus erythropolis PR4) (protein)
chain: VPWGSASTIAPPPGFPSDIPLSQQAYANWSREIMLESVWTATARHSDDVVTLANWAFDNGYTVRAKGTMHGWSPLTVVPGAPSDRVLLVDTMANLNSVVVQHGTPATVTAGAGASIEAILTALEREGLGWANAPAIGELSIAGALAIGAHGATYPAVGETITPGQSYGSLSNLITEITVVAWDEGRNRYGLKTFHRSDDEITAFLTHLGRTFVTSVTLQAGENYRLRCRSFTDIPWQELFAAPGSPGRTYESFVEKSGRVEAIWFPFTQTPWLKVWTPTPVKPPESREVSGPYNYFFSDAIPEEVTTPLGMVAQGLQAATPLFGASQFGAVAAGLALTDTDDLWGWSKDVLFYLRHTTLRVVAGGGAVITKRSNIGRVVHEMTSWLNERMTHYASLGQYPVNMPFEVRLCGVDDSGEVLVDSAGVPDLSAVRPRADRQDWDTAIWMNVVSIPGTAGLPAFLREMERWMVANYSGDYATFRPEWSKGWAFTDQAAYQDDEFLTSTVPATFRAGGDGNWDFALATLDEHDPHRVFSNTFIDRVLPPS
notes: predicted mature enzyme, Tat signal peptide removed (Val-45 given, but 545 aa given would mean start at 44), C-terminal 6xHis kept, pET-21b(+), E. coli Rosetta (DE3) pLysS; precursor 588 aa, mature 59,369 Da; VAO family flavoenzyme (FAD)
For B1, the Michaelis-Menten constant (Km) amounted to 22.1 ± 0.3 µM, the Vmax was 0.57 µmol/min/mg, the kcat is 0.61 ± 0.11 s⁻¹ and the kcat/Km was determined as 30000 ± 10000 M⁻¹ s⁻¹.

B2: ChoRI (Rhodococcus erythropolis PR4) (protein)
chain: VPAGSSGSAGGPVSTLTPPPAFPEGIALYQQAYQNWSKEIMLDAIWTCSPKTPEDVVRLANWGHANGYTIRPRGAMHGWTPLTIVNGAPVDKVILADTTVHLTGVSVNAGGSPATVTAGPGATLDAITTALQAQGLGFANLPAPGVLTIAGCLAVDAHGAALPAEGEAHVPGQTFGSLSNLVTSLTAVVWNGSEYALETYARSDAAIKPLLTHLGRTFLTSVTLQAAPNYRMRCVSHTDIGWQELFGARGASGRTFEKFVRENGRAEAIWYPFTERPWMKVWSLAPTKPPFSREVTGPYNYIFSDNLPEPVTDMIGQINAGNPGIAPAFGQIMYATTVAGLAATFSNDLWGWSKDVQFYIRATTLRLTEGGGAVITSRANIGQVIHDFTQWFNGRMEYYRSIGQFPLNGPVEIRCCGLDQPSDVEVDSAGAPTISAMRPRPDHPEWDTAIWLNVLGVPGTPGMFAFYREMEQWMRNHYNNNDATFRPEWSKGWAFGPDKPYTDAPIITQGLPQTYRDGVPSSDNWDTANAAYNALDPHKVFSNTFLDQLLP
notes: predicted mature enzyme, Tat signal peptide removed (from Val-37), C-terminal 6xHis kept, pET-21b(+), E. coli Rosetta (DE3) pLysS; precursor 587 aa, mature 551 aa, 59,590 Da; VAO family flavoenzyme (FAD)
Take B2: the Km is 22.6 ± 0.5 µM, the Vmax turned out to be 6.4 µmol/min/mg, the turnover number (kcat) was determined as 6.8 ± 0.3 s⁻¹ and the kcat/Km turned out to be 300000 ± 10000 M⁻¹ s⁻¹.

One may read the Km as the concentration of substrate that gives half-maximal velocity. Broadly, the Vmax is the rate approached at saturating substrate. The term kcat denotes the maximal rate divided by the concentration of active sites. As a reminder, the kcat/Km is the second-order rate constant that governs catalysis at low substrate concentration.
